Data: paper PMC8828746

Molecular target: Fc-tagged human angiotensin-converting enzyme 2 (hACE2) (human) (UniProt Q9BYF1)
Assay: BLI

Substance | Kd
6× His-tagged S1 protein of SARS-CoV-2 Delta (B.1.617.2) variant (domain or fragment) | 5.03 nM
6× His-tagged S1 protein of SARS-CoV-2 Kappa (B.1.617.1) variant (domain or fragment) | 4.85 nM
6× His-tagged S1 protein of SARS-CoV-2 Omicron (B.1.1.529) variant (domain or fragment) | 7.4 nM
